According to article PMC6375650 (PLoS Biology, 2019):
Values joined by “and” are separate entries in the source; they are usually repeats but may differ in a detail not shown here. Equal entries are not always repeated.

What was measured:
Experiment in all cases: cryo-EM structure
Details in all cases: both partners purified
[1] = biological target: uncleaved H7 NY HA (HA0), A/New York/107/2003, ectodomain trimer (influenza A virus (A/New York/107/2003))
[2] = biological target: T1, cleaved H7 Sh2 HA (HA1/HA2), A/Shanghai/2/2013, ectodomain trimer (influenza A virus (A/Shanghai/2/2013))
T1 construct: copies: 3 + 3

[3] = biological target: T2, cleaved H7 NL HA (HA1/HA2), A/Netherlands/219/2003, ectodomain trimer (influenza A virus …, UniProt Q6VMK1)
T2 construct: copies: 3 + 3

B1: H7.5 Fab (papain digest of H7.5 IgG) (Fab, V domains shown)
VH: QVQLVQSGAEVKKPGASVKVSCKASGYTLTRYYFHWVRQAPGQGFEWMGIINPNGGGTSYAQKFGDRVIMTSDMSTSTIYMELSSLRSEDTAVYYCARDMPYYHDSGGPLFDLWGQGTLVTVSS
VL: EIVMTQSPSSLSASVGDRVTITCRPSQSISTFLNWYEQKPGKAPKLLIYDASSLQSGVPSRFSGSGSGTEFTLTISSLQPEDFATYYCQQSFSTPYTFGQGTRLEIK
stoichiometry N [1]: 3 Fabs per trimer | stoichiometry N [2]: 3 Fabs per trimer | stoichiometry N [3]: 3 Fabs per trimer and 2 Fabs per trimer
